The source of these data is patent US5773001 (American Cyanamid Company, dated 1998).

Assay [1] has as its target CD33 antigen (human) (UniProt P20138). The assay is described as follows: competition with 125I-labelled native antibody on HEL 92.1.7 cells; IC50 (reference) / IC50 (sample).
For assay [2] the target is unchanged.
Assay [3] shares this target. The source holds these as a separate data set.
For assay [4] the target is unchanged. This is another data set of the same source.
Assay [5] shares this target. This is another data set of the same source.
For assay [6] the target is unchanged. This is another data set of the same source.
Assay [7] shares this target. The source holds these as a separate data set.
Assay [8] has as its target IL-2 receptor that is found on activated and functionally mature T cells, including abnormally activated leukemia cells (Homo sapiens (Human)) (UniProt P01589).
The target of assay [9] is polyepithelial mucin (PEM) antigen on cells (human) (UniProt P15941).
Sequence of polyepithelial mucin (PEM) antigen on cells (human) (P15941 24-1255): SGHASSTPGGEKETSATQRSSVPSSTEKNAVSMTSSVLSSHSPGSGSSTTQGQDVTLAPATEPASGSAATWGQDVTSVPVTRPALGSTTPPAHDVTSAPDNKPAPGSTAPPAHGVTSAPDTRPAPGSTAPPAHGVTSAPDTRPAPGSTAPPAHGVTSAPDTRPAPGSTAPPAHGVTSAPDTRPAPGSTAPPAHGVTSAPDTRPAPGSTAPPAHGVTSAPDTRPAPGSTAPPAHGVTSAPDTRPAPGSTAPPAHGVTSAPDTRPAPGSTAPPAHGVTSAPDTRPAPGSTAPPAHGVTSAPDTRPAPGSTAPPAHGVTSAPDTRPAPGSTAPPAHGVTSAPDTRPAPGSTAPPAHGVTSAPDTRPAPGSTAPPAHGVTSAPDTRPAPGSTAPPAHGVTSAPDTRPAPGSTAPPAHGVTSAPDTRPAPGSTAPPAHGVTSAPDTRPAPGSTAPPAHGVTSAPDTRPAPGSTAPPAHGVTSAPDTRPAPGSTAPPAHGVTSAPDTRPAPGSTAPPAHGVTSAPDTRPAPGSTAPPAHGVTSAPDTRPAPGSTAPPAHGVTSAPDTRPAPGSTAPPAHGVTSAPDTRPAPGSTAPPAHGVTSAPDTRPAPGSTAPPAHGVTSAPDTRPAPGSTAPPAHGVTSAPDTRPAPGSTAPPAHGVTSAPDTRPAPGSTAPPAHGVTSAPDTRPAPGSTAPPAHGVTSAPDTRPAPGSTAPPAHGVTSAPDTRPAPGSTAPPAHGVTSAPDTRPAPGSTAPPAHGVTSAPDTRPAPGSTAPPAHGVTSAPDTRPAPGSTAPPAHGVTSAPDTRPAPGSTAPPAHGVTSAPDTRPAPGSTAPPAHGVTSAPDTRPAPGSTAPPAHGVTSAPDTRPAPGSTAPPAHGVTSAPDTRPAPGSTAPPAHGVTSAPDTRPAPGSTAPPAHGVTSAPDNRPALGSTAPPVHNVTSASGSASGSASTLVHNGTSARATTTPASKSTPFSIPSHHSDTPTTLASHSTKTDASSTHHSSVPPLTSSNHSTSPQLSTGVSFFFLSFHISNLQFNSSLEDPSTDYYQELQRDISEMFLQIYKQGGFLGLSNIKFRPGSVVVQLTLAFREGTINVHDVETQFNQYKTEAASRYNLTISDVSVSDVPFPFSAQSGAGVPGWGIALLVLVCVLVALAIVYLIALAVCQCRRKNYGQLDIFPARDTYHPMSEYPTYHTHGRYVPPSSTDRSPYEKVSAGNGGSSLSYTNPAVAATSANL
Assay [10] shares this target. The assay is described as follows: competition with 125I-labelled native antibody on A2780DDP cells; IC50 (reference) / IC50 (sample).
In assay [11] the target is CD33 antigen (human) (UniProt P20138). In words: competition with 125I-labelled native antibody on HEL 92.1.7 cells; IC50 (reference) / IC50 (sample). This is another data set of the same source.
For assay [12] the target is unchanged. The source holds these as a separate data set.
For assay [13] the target is unchanged. The source holds these as a separate data set.
Assay [14] has the same target. This is another data set of the same source.
For assay [15] the target is unchanged. The source holds these as a separate data set.
The target is the same in assay [16]. The source holds these as a separate data set.
Assay [17] shares this target. The source holds these as a separate data set.
Assay [18] has the same target. The source holds these as a separate data set.

Like-named read-outs stand apart in the source and are kept apart here.

In the assay with CD33 antigen (human) [1], “Conjugate of 4-formylphenoxyacetic acid (1) condensed with Calicheamicin N-acetyl gamma dimethyl hydrazide and m-P67.6 (antibody)” came in with a Rel. Affinity of 0.77. In the assay with CD33 antigen (human) [2], this molecule gave an Ex vivo inhibition of colony formation of 90 % inhibition and an In vitro IC50 (3H-thymidine incorporation) of 0.068 ng/mL.

In the assay with CD33 antigen (human) [1], “Conjugate of 4-acetylbenzenebutanoic acid (19) condensed with Calicheamicin N-acetyl gamma dimethyl hydrazide and m-P67.6 (antibody)” showed a Rel. Affinity of 0.42. In the assay with CD33 antigen (human) [3], this molecule had an Ex vivo inhibition of colony formation of 99 % inhibition and an In vitro IC50 (3H-thymidine incorporation) of 0.0082 ng/mL.

Take “Conjugate of 6-formyl-2-naphthoic acid (4) condensed with Calicheamicin N-acetyl gamma dimethyl hydrazide and m-P67.6 (antibody)”: the In vitro IC50 (3H-thymidine incorporation) in the assay with CD33 antigen (human) [4] was found to be 0.047 ng/mL. In addition, the Rel. Affinity in the assay with CD33 antigen (human) [1] turned out to be 0.73.

Consider “Conjugate of 4-formyl-3-methoxyphenoxyacetic acid (3) condensed with Calicheamicin N-acetyl gamma dimethyl hydrazide and m-P67.6 (antibody)”, for which, in the assay with CD33 antigen (human) [5], the Ex vivo inhibition of colony formation was 90 % inhibition and the In vitro IC50 (3H-thymidine incorporation) stood at 0.12 ng/mL. Moreover, the Rel. Affinity with CD33 antigen (human) [1] was 0.76.

“Conjugate of 4-(2-oxoethoxy)benzenepropanoic acid (5) condensed with Calicheamicin N-acetyl gamma dimethyl hydrazide and m-P67.6 (antibody)” had a Rel. Affinity with CD33 antigen (human) [1] of 1.11. In the assay with CD33 antigen (human) [6], the Ex vivo inhibition of colony formation worked out at 71 % inhibition and the In vitro IC50 (3H-thymidine incorporation) came out at 0.45 ng/mL.

In the assay with CD33 antigen (human) [1], “Conjugate of 4-(4-acetylphenoxy)butanoic acid (7) condensed with Calicheamicin N-acetyl gamma dimethyl hydrazide and m-P67.6 (antibody)” had a Rel. Affinity of 0.96. For the same molecule, in the assay with CD33 antigen (human) [7], the Ex vivo inhibition of colony formation came to 98 % inhibition and the In vitro IC50 (3H-thymidine incorporation) is 0.017 ng/mL.

As to “Conjugate of 4-(4-acetylphenoxy)butanoic acid (7) condensed with calicheamicin N-acetyl gamma dimethyl hydrazide and anti-Tac (antibody)”, in [8], the Ex vivo IC50 (inhibition of D14 CFU-GM colony growth) came to 1 ng/mL and the In vitro IC50 (3H-thymidine incorporation) was 0.004 ng/mL.

B1: Conjugate of 4-formyl-3-methoxyphenoxyacetic acid (3) condensed with Calicheamicin N-acetyl gamma dimethyl hydrazide and m-CT-M-01 (antibody, V domains shown)
VH: QIQLQQSGPELVKPGASVKISCKASGYTFTDYYINWMKQKPGQGLEWIGWIDPGSGNTKYNEKFKGKATLTVDTSSSTAYMQLSSLTSEDTAVYFCAREKTTYYYAMDYWGQGTSVTVSA
VL: DIVMTQAAPSVPVTPGESLSISCRSSKSLLHSNGDTFLYWFLQRPGQSPQLLIYRMSNLASGVPDRFSGSGSGTAFTLRVSRVEAEDVGVYYCMQHLEYPFTFGAGTKLELKR
modifications: drug-linker amide on lysine side chains, sites not stated; drug-linker amide on lysine side chains, sites not stated
Molecule B1 displayed an In vitro IC50 (3H-thymidine incorporation) in [9] of 5.6 ng/mL. Moreover, the Rel. Affinity in assay [10] was determined as 0.88.

B2: Conjugate of 4-formyl-3-methoxyphenoxyacetic acid (3) condensed with Calicheamicin N-acetyl gamma dimethyl hydrazide and h-P67.6 (antibody, V domains shown)
VH: EVQLVQSGAEVKKPGSSVKVSCKASGYTITDSNIHWVRQAPGQSLEWIGYIYPYNGGTDYNQKFKNRATLTVDNPTNTAYMELSSLRSEDTDFYYCVNGNPWLAYWGQGTLVTVSS
VL: DIQLTQSPSTLSASVGDRVTITCRASESLDNYGIRFLTWFQQKPGKAPKLLMYAASNQGSGVPSRFSGSGSGTEFTLTISSLQPDDFATYYCQQTKEVPWSFGQGTKVEVKR
modifications: drug-linker amide on lysine side chains, sites not stated; drug-linker amide on lysine side chains, sites not stated
The molecule B2 had a Rel. Affinity with CD33 antigen (human) [11] of 0.81. This molecule also gave an In vitro IC50 (3H-thymidine incorporation) in the assay with CD33 antigen (human) [12] of 0.3 ng/mL.

B3: Conjugate of 4-(4-acetylphenoxy)butanoic acid (7) condensed with Calicheamicin N-acetyl gamma dimethyl hydrazide and h-P67.6 (antibody, V domains shown)
VH: EVQLVQSGAEVKKPGSSVKVSCKASGYTITDSNIHWVRQAPGQSLEWIGYIYPYNGGTDYNQKFKNRATLTVDNPTNTAYMELSSLRSEDTDFYYCVNGNPWLAYWGQGTLVTVSS
VL: DIQLTQSPSTLSASVGDRVTITCRASESLDNYGIRFLTWFQQKPGKAPKLLMYAASNQGSGVPSRFSGSGSGTEFTLTISSLQPDDFATYYCQQTKEVPWSFGQGTKVEVKR
modifications: drug-linker amide on lysine side chains, sites not stated; drug-linker amide on lysine side chains, sites not stated
In turn, B3 displayed a Rel. Affinity in the assay with CD33 antigen (human) [11] of 0.75. In the assay with CD33 antigen (human) [13], this molecule showed an Ex vivo inhibition of colony formation of 96 % inhibition and an In vitro IC50 (3H-thymidine incorporation) of 0.098 ng/mL.

B4: Conjugate of 4-acetylbenzenebutanoic acid (19) condensed with Calicheamicin N-acetyl gamma dimethyl hydrazide and h-P67.6 (antibody, V domains shown)
VH: EVQLVQSGAEVKKPGSSVKVSCKASGYTITDSNIHWVRQAPGQSLEWIGYIYPYNGGTDYNQKFKNRATLTVDNPTNTAYMELSSLRSEDTDFYYCVNGNPWLAYWGQGTLVTVSS
VL: DIQLTQSPSTLSASVGDRVTITCRASESLDNYGIRFLTWFQQKPGKAPKLLMYAASNQGSGVPSRFSGSGSGTEFTLTISSLQPDDFATYYCQQTKEVPWSFGQGTKVEVKR
modifications: drug-linker amide on lysine side chains, sites not stated; drug-linker amide on lysine side chains, sites not stated
The molecule B4 returned a Rel. Affinity in the assay with CD33 antigen (human) [11] of 0.5. In the assay with CD33 antigen (human) [14], the Ex vivo inhibition of colony formation worked out at 99 % inhibition and the In vitro IC50 (3H-thymidine incorporation) was 0.012 ng/mL.

B5: Conjugate of 4-formylbenzoic acid (2) condensed with Calicheamicin N-acetyl gamma dimethyl hydrazide and h-P67.6 (antibody, V domains shown)
VH: EVQLVQSGAEVKKPGSSVKVSCKASGYTITDSNIHWVRQAPGQSLEWIGYIYPYNGGTDYNQKFKNRATLTVDNPTNTAYMELSSLRSEDTDFYYCVNGNPWLAYWGQGTLVTVSS
VL: DIQLTQSPSTLSASVGDRVTITCRASESLDNYGIRFLTWFQQKPGKAPKLLMYAASNQGSGVPSRFSGSGSGTEFTLTISSLQPDDFATYYCQQTKEVPWSFGQGTKVEVKR
modifications: drug-linker amide on lysine side chains, sites not stated; drug-linker amide on lysine side chains, sites not stated
In turn, B5 gave a Rel. Affinity in the assay with CD33 antigen (human) [11] of 0.99. In the assay with CD33 antigen (human) [15], the Ex vivo inhibition of colony formation was found to be 63 % inhibition and the In vitro IC50 (3H-thymidine incorporation) was determined as 4.8 ng/mL.

B6: Conjugate of 4-(4-formylphenoxy)butanoic acid (9) condensed with Calicheamicin N-acetyl gamma dimethyl hydrazide and h-P67.6 (antibody, V domains shown)
VH: EVQLVQSGAEVKKPGSSVKVSCKASGYTITDSNIHWVRQAPGQSLEWIGYIYPYNGGTDYNQKFKNRATLTVDNPTNTAYMELSSLRSEDTDFYYCVNGNPWLAYWGQGTLVTVSS
VL: DIQLTQSPSTLSASVGDRVTITCRASESLDNYGIRFLTWFQQKPGKAPKLLMYAASNQGSGVPSRFSGSGSGTEFTLTISSLQPDDFATYYCQQTKEVPWSFGQGTKVEVKR
modifications: drug-linker amide on lysine side chains, sites not stated; drug-linker amide on lysine side chains, sites not stated
In the case of B6, the Rel. Affinity in the assay with CD33 antigen (human) [11] was 0.56. In the assay with CD33 antigen (human) [16], this molecule showed an Ex vivo inhibition of colony formation of 98 % inhibition and an In vitro IC50 (3H-thymidine incorporation) of 0.52 ng/mL.

B7: Conjugate of 4-formylphenoxyacetic acid (1) condensed with Calicheamicin N-acetyl gamma dimethyl hydrazide and h-P67.6 (antibody, V domains shown)
VH: EVQLVQSGAEVKKPGSSVKVSCKASGYTITDSNIHWVRQAPGQSLEWIGYIYPYNGGTDYNQKFKNRATLTVDNPTNTAYMELSSLRSEDTDFYYCVNGNPWLAYWGQGTLVTVSS
VL: DIQLTQSPSTLSASVGDRVTITCRASESLDNYGIRFLTWFQQKPGKAPKLLMYAASNQGSGVPSRFSGSGSGTEFTLTISSLQPDDFATYYCQQTKEVPWSFGQGTKVEVKR
modifications: drug-linker amide on lysine side chains, sites not stated; drug-linker amide on lysine side chains, sites not stated
In the assay with CD33 antigen (human) [11], B7 came in with a Rel. Affinity of 0.65. For the same molecule, in the assay with CD33 antigen (human) [17], the Ex vivo inhibition of colony formation was found to be 95 % inhibition and the In vitro IC50 (3H-thymidine incorporation) came out at 0.23 ng/mL.

B8: Conjugate of 4-(2-acetyl-1-naphthalenyl)oxy! butanoic acid (20) condensed with Calicheamicin N-acetyl gamma dimethyl hydrazide and h-P67.6 (antibody, V domains shown)
VH: EVQLVQSGAEVKKPGSSVKVSCKASGYTITDSNIHWVRQAPGQSLEWIGYIYPYNGGTDYNQKFKNRATLTVDNPTNTAYMELSSLRSEDTDFYYCVNGNPWLAYWGQGTLVTVSS
VL: DIQLTQSPSTLSASVGDRVTITCRASESLDNYGIRFLTWFQQKPGKAPKLLMYAASNQGSGVPSRFSGSGSGTEFTLTISSLQPDDFATYYCQQTKEVPWSFGQGTKVEVKR
modifications: drug-linker amide on lysine side chains, sites not stated; drug-linker amide on lysine side chains, sites not stated
In the assay with CD33 antigen (human) [11], B8 displayed a Rel. Affinity of 0.5. In the assay with CD33 antigen (human) [18], this molecule registered an Ex vivo inhibition of colony formation of 76 % inhibition and an In vitro IC50 (3H-thymidine incorporation) of 0.061 ng/mL.
